In general, Km refers to the concentration of substrate that gives half-maximal velocity. Usually kcat stands for the number of substrate molecules converted per active site and unit of time at saturation. As a reminder, the kcat/Km is the second-order rate constant that governs catalysis at low substrate concentration.

The values that follow come from the PETadex activity labels.

Substrate in one data set: p-NP-C6
The conditions noted are these: pH 8.5, 60 °C.

Substrate in another data set: BHET
As to conditions: 120 h.

B1: unnamed (protein)
chain: MKIVPPKPFFFEAGERAVLLLHGFTGNSADVRMLGRFLESKGYTCHAPIYKGHGVPPEELVHTGPDDWWQDVMNGYEFLKNKGYEKIAVAGLSLGGVFSLKLGYTVPIEGIVTMCAPMYIKSEETMYEGVLEYAREYKKREGKSEEQIEQEMEKFKQTPMKTLKALQELIADVRDHLDLIYAPTFVVQARHDEMINPDSANIIYNEIESPVKQIKWYEQSGHVITLDQEKDQLHEDIYAFLESLDW
With B1, in the data set with p-NP-C6 (part of the chain shown), the Km stood at 2.16 µM, the kcat was 38 s⁻¹ and the kcat/Km was determined as 1.76e+07 M⁻¹ s⁻¹.

B2: unnamed (protein)
chain: MNFPRASRLMQAAVLGGLMAVSAAATAQTNPYARGPNPTAASLEASAGPFTVRSFTVSRPSGYGAGTVYYPTNAGGTVGAIAIVPGYTARQSSIKWWGPRLASHGFVVITIDTNSTLDQPSSRSSQQMAALRQVASLNGTSSSPIYGKVDTARMGVMGWSMGGGGSLISAANNPSLKAAAPQAPWDSSTNFSSVTVPTLIFACENDSIAPVNSSALPIYDSMSRNAKQFLEINGGSHSCANSGNSNQALIGKKGVAWMKRFMDNDTRYSTFACENPNSTRVSDFRTANCS
With B2, the plate clearing entry with BHET (part of the chain shown) is listed as “clears the plate (z > 3 vs empty vector)”.

B3: unnamed (protein)
chain: MFIMIKKSELAKAIIVTGALVFSIPTLAEVTLSETTVSSIKSEATVSSTKKALPATPSDCIADSKITAVALSDTRDNGPFSIRTKRISRQSAKGFGGGTIHYPTNASGCGLLGAIAVVPGYVSYENSIKWWGPRLASWGFVVITINTNSIYDDPDSRAAQLNAALDNMIADDTVGSMIDPKRLGAIGWSMGGGGALKLATERSTVRAIMPLAPYHDKSYGEVKTPTLVIACEDDRIAETKKYANAFYKNAIGPKMKVEVNNGSHFCPSYRFNEILLSKPGIAWMQRYINNDTRFDKFLCANENYSKSPRISAYDYKDCP
In the case of B3, in the data set with BHET, the plate clearing result is “not clears the plate”.

B4: unnamed (protein)
chain: MDKTRLFSTLSMVTSALLFSISVSAGKPSKGGDEPAPEPAACISDTDITSAALSSTGSSGPFTVSTKDVSRWSASGFGGGTIHYPTGAGDCGPIGGIAVVPGYVSYEASIKWWGPRLASWGFVVITINTNSIYDQPDSRATQLSAALDHIINDSTVGSMVDSSRLGAIGWSMGGGGALKLATDRSEVKAIIPQAPWYSGRYGRMKTPAFMIGCENDFVAPTSNHVDVFYANASGPKMKIEVNNGDHSCANSGYNETLLGKPGIAWMQRYIHGDTRFNQFLCGNENYGSSNSVSAYDFESC
With B4, the plate clearing result in the data set with BHET (part of the chain shown) was “not clears the plate”.

B5: unnamed (protein)
chain: MKTSNSRRRRLAVAAGALLLAAAAHAQTNPYQKGPDPTSASLEATAGPFAVSTTSVSSSASGFGGGTIYYPTTAGSYGAIAISPGFTATQSSIAWLGRRLASHGFVVITIDTNSTLDQPASRATQLMAALNYVVNSSSSTVRSRVDANRLGVAGHSMGGGGTLIAARDNPTLKAAVPLTPWNTTKNFSSVTVPTLIIGAENDTVAPVSSHAIPFYNSLPSSTDKAYAELNGASHFAPNSSNTPIGKYSVAWMKRFVDNDTRYSPFLCGAPHTAYATSSAVSDYRSTCPY
B5: the plate clearing entry in the data set with BHET was “not clears the plate”.

B6: unnamed (protein)
chain: MVGYLEAVANYFPDTKWANYTTGYDGGTGGQTGFYNVMLQNSPLGALSWWNASCEFHDVMVEQAADTAARVPSNYRYYIGAGSAHTMYGSDKVYSDQSGGESQTILDWVNDMLAFDPAAADPGAPSWQSVECDDCEIVLPGDPLPRSLPTAPFALDIAGNPVIRCPPFPRGPDPTPAALEADLGPFPVRSYRPFFTPGFGAGTIWYPANPNPGPFAVIAVSPGFRAPESTMAWVGPRLASNGFIVITISTQSPFDNPTSRAKQLMAALRLVAAEGRRPSPIIGRVDGDRTGLIGHSMGGGGSLIAARDNPSVDAIIPLAPWNSPAKDFSAVEAASLIVACERDEIARVSQHAKPFYDSIPAADVNKAFLEFRGADHLCVMVGNDHYATLGKYIVAWMKAFLDSDTRYDEYLCG
For B6, the plate clearing result with BHET is “not clears the plate”.

B7: unnamed (protein)
chain: MFNQIGKKSALSLMAAGSLMFSATALAIGGGGSGGGNNGGGGGCEADCGYERGPDPSVSLLEASTGPFSVRTSNVSSSVRGFGGGTIHYPTNTTGTMAAIVVIPGFVSPESSIAWWGPKLASHGFVVMTIGTNSGFDQPASRASQLNNALDYLIEQNGSSRSPINGMIDTDRLGVMGWSMGGGGTLRVATEGRVSAAIPLAPWDSSSSQFRSIDTPTLIFACENDSTAPVRSHADPFYDAIPDSTAKAFVELDGGGHTCANGSSGFGGSYNDVLSRLGVSWMKLHLDKDQRYNQFVCGPNHESDRSISEYRGTCPY
Consider B7, for which the plate clearing result with BHET is “not clears the plate”.

B8: unnamed (protein)
chain: MKNAPIRSVLATCLVAAAASALAQTTAPTSASLNASAGPLSVSTASVTAPRGFGGGTIYYPTTQARYGVIAISPGFTATQISIAWLGRRIATHGFVVITLNTLTTLDQPDSRANQLMAALNHVINSSSSAVKARIDTSRLAVAGHSMGGGGALIAARDNPTLKASYPLTPWNINSAFTTVRVPTMIVGADGDTIAPVGTHARPFYAALPGATSKAYGELNGATHFSPNSTNTPIGRYGVAWMKRFLDGDTRYSTFLCGTEHTRYATALVFDRYNQNCPY
Consider B8, for which, in the data set with BHET, the plate clearing result is reported as “not clears the plate”.

B9: unnamed (protein)
chain: MERTVVETRYGRLRGEMNEGVFVWKGIPYAKAPVGERRFLPPEPPDAWDGVREATSFGPVVMQPSDPIFSGLLGRMSEAPSEDGLYLNIWSPAADGKKRPVLFWIHGGAFLFGSGSSPWYDGTAFAKHGDVVVVTINYRMNVFGFLHLGDSFGEAYAQAGNLGILDQVAALRWVKENIAAFGGDPDNITIFGESAGAASVGVLLSLPEASGLFRRAMLQSGSGSLLLRSPETAMAMTERILDKAGIRPGDRERLLSIPAEELLRAALSLGPGVMYGPVVDGRVLRRHPIEALRYGAASGIPILIGVTKDEYNLFTLTDPSWTKLGEKELLDRINREVGPVPEEAIRYYKETAEPSAPTWQTWLRIMTYRVFVEGMLRTADAQAAQGADVYMYRFDYETPVFGGQLKACHALELPFVFHNLHQPGVANFVGNRPEREAIANEMHYAWLSFARTGDPNGAHLPEAWPAYTNERKAAFVFSAASHVEDDPFGRERAAWQGR
In the case of B9, in the data set with p-NP-C6, the Km is 0.5 µM, the kcat came to 39.8 s⁻¹ and the kcat/Km is 7.95e+07 M⁻¹ s⁻¹.

B10: unnamed (protein)
chain: MANPYERGPNPTDALLEASSGPFSVSEENVSRLSASGFGGGTIYYPRENNTYGAVAISPGYTGTEASIAWLGERIASHGFVVITIDTITTLDQPDSRAEQLNAALNHMINRASSTVRSRIDSSRLAVMGHSMGGGGTLRLASQRPDLKAAIPLTPWHLNKNWSSVTVPTLIIGADLDTIAPVATHAKPFYNSLPSSISKAYLELDGATHFAPNIPNKIIGKYSVAWLKRFVDNDTRYTQFLCPGPRDGLFGEVEEYRSTCPF
As to B10, the plate clearing entry in the data set with BHET (part of the chain shown) is listed as “clears the plate (z > 3 vs empty vector)”.

B11: unnamed (protein)
chain: MTVCKLRMFTAQKHPVTNKIFGGSSMSSRKQDLRLRQLLYCLLLSTALGGAVVHAQTAPATIAQEAFNNGFGIFTAAGSATANGQAVLAGTFGGTDGSITSSPISTQGFSNITVSFDRTTVGLDNGEAGVAEFSVAGGAFTAIESAQTASGRMSFALAASAANQAQLRLRFRVVASRANETYSVDNVLVQGVAAGAQPPPPDPQPTNNPFQRGPTPSAATLEAAQGPFAVATTTVPNPSGFGAGTIYFPTSTTEGPFAAVSIAPGFSERQANVNWWGPRLASNGFVVVVIDTNSTSDAPASRATQLVAALRQVVTLSGTSGSPVFNKVDGNRLGVMGHSLGGGGTLIAAQNNPTLKAAIPFAPFNNDTNFSSVVVPTLIIACENDNVAPVADHASPFYNSFAASLDKAFLEIAGGSHSCANSGNNNMPILGKYGVSWMKLFMDNDTRYSPFLCGAPHQADLSGTQISEYRESCP
Take B11: the plate clearing result with BHET (part of the chain shown) is “clears the plate (z > 3 vs empty vector)”.

B12: unnamed (protein)
chain: MVVIRTTNTTPTLQVTLMTTISVRKSALFVFAATAVLFSMSAFSFNPPTEPEPDPGPSPCQTDCGFTRGPNPTASYLEASTGPYAVRTTDVSRYVSGFGGGTIHYPAGTTGEMGAIAIVPGFFASESSIQWWGPRLASHGFVVITISTNSVFDQPGSRSAQLENALDYVISQSNSPTSGILGMVDSSRVGAMGWSMGGGGTLRLASSERLSAAIPLAPWNTGSNNFDQIDTPTLIFACENDGTAPVSQHASPFYNRIPGATAKAYFEINNGQHSCANGGGSNGGLLGKYGVSWMKLHIDKDDRYNRFLCGPNHAANSAISEYRGTCPY
Consider B12, for which the plate clearing result in the data set with BHET was “not clears the plate”.

B13: unnamed (protein)
chain: MKFNLSEKWLIALLASSLSFNALAVGGGGDDDDPPSCETDCGYERGPDPTASSLEADDGPYNVSTINVSSFVSGFGGGTIHYPRGTSGTMGAIAVVPGFVSSESDIIWWGSRIASHGFVVITIDTNSGFDQPDSRANQLSAALDYVIDESDSSSSAISGMVDSSRLGVMGWSMGGGGSLKLATDRNLMAIIPQAPYYSGFNDFDEITTPTLIIACENDAVAPVSSHASSFYYDIPSSTDKAFLEINNGSHYCGNTGNANEDILGKYGVAWMKRFIDLDQRYDQFLCGPNHDAPYAISEYRDTCN
As for B13, the plate clearing result in the data set with BHET (part of the chain shown) was “not clears the plate”.

B14: unnamed (protein)
chain: MNNNKMPKSALSLLVAGALFLSATAMAANPVPPPTNPGNPDSGYQRGPNPSVSMLEARNGPFSVRTTNVSSFTSGFGGGTIHYPTNTTGTMAAIVVIPGFVSAESSIEWWGPKLASHGFVVMTIDTNSGFDQPPSRARQINAALDYLIDQNNARGSAVSGMIDPNRLGVVGWSMGGGGSLRVAAEGRLDAVIPLAPWDTTNFRSVNTPALIFACESDTIAPVRSHASPFYNQIPASTPKAFVEISRGSHYCANGGGSNDAVLSRLGVSWMKVHLDKDQRYQQFICGPRHESDRSISEYRGN
As for B14, the plate clearing result with BHET (part of the chain shown) was “not clears the plate”.

B15: unnamed (protein)
chain: MLALRTSFPRVLTRLLAASLATGLVAQAQAAGHERGPAPTAASLEAEAGPFQVASTVLGAPVGYKGGTVFYPKGPGPFALVAFAPGFIETQSWNAWWAKYLASHGFVVVNIDTKSTLAFPPARQREQLAALKDVIQRSHTRGTPFYGLVDATRLGAMGHSMGGGATLELARDTPHIKAIVPMAPFQTTGTDYSRLTVPTLILTCKGDIVASAKSHAAPIYDSLPSSLDKAHVELAGGGGHPCTTSLGTSAEVKKVAAKYGVSWLKRFLDEDTRYSPFLCGAEHEASLKTSVVSAYQGNCP
B15: in the data set with BHET (part of the chain shown), the plate clearing entry is “not clears the plate”.
